Experimental data from the nanobody polyreactivity screen of Harvey et al. (2022).

Test: yeast display, Sf9 membrane polyspecificity reagent, FACS + sequencing; frameworks hold sequencing errors
How it was run: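 Synthetic nanobody libraries on Saccharomyces cerevisiae BJ5465 were galactose-induced for 36–48 hours, stained 1 hour at 4 °C with 10% biotinylated, detergent-solubilized Sf9 membrane reagent and enriched on streptavidin microbeads. FACS then separated cells into low and high (top ~1%) gates by anti-HA (expression) and streptavidin (reagent binding) fluorescence. Genes were colony-PCR amplified, MiSeq 2 × 250 sequenced and CDR-length filtered. A clone's polyreactivity label is that of its gate of origin.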

| Sequence | polyreactivity (PSR sort gate) |
| --- | --- |
| QVQLVESVGGLVQAGGSLRLSCAASGRTFPYYAKGGYRQAPWKERELVATISSGGITNYADSVKVRFTISRDNAKNTVYLQMNSLKPEDTAVYYCAADRHWSAGLWRYDYWGQGTQVTVSS | high polyreactivity |
| QVQLVESVGGLVQAGGSLRLSCAASGRTFVRYTMGWYRQAPGKERELVAAITWSGGSTYYADSVKGRFTISRDNATNTVYLQMNSLKPEDTAVYDCAARTYFGTQLQRYYWGQGTQVTVSS | high polyreactivity |
| QVQLVESVGGLVQAGGSLRLSCAASGRTLRYYAMGWYRQAPGKERELVATITRRSGSTYYADSVKGRFTISRDNAKNTVYLQMNSLKPEDTAVYYCNAVWRPGERDYWGQGTQVTVSS | low polyreactivity |
| QVQLVESVGGLVQAGGSLRLSCAASGSIEAYAMGWYRQAPGKERELVASITWRGGSTYYADSVKGRFTISRDNAKNTVYLQMNSLKPEDTAVYYCAAGFQTRTPLNQFDYWGQGTQVTVSS | low polyreactivity |
| QVQLVESVGGLVQAGGSLRLSCAASGSIFAIYVMGSYRQAPGKERELVAAISYRSGSTYYADSVKGRFTISRDNAKNTVYLQMNSLKPEDTAVYYCAATSRYYTFGYWGQGTQVTVSS | low polyreactivity |
| QVQLVESVGGLVQAGGSLRLSCAASGSIFAPYAMGWYRQAPGKERELVAAITWSGDSTYYADSVKGRFTISRDNAKNTVYLQMNSLKPEDTAVYYCATEEVYGQGNYWGQGTQVTVSS | low polyreactivity |
| QVQLVESVGGLVQAGGSLRLSCAASGSIFAVNAMGWYRKAPGTERELVAAITSSGVDTYYADSVKGRFTISRDNAKNTVYLQMNSLKPEDTAVYYCAADDQLNWYDYWGQGTQVTVSS | low polyreactivity |
| QVQLVESVGGLVQAGGSLRLSCAASGSIFHYNALGWYRPAPGKERELVAAITSGGSTYADSVKGRFTISRDNAKNTVYLQMNSLKPEDTAVYYCNADSVGPRGDLGYWGQGTQVTVSS | low polyreactivity |
| QVQLVESVGGLVQAGGSLRLSCAASGSIFLQYTMGWYRQAPGKERELVAAITESDGSTYYADSVKGRFTISRDNAKNTVYLQMNSLKPEDTAVYYCAADVVYFKYWDKYDYWGQGTQVTVSS | low polyreactivity |
| QVQLVESVGGLVQAGGSLRLSCAASGSIFRLYAMGWYRQAPGKERELVAAITWSGGSTYYADSVKGRFTISRDNAKNTVYLQMNSLKPEDTAVYYCNALVGGYRSAIFGYWGQGTQVTVSS | high polyreactivity |
| QVQLVESVGGLVQAGGSLRLSCAASGSIFSSYAMGWYRQAPGKERELVAAITSGGSTYYADSVKGRFTISRDNAKNTVYLQMNSLKPVDPAVYYCAAREVLTSKLHMGYWGTGTQVTVSS | low polyreactivity |
| QVQLVESVGGLVQAGGSLRLSCAASGSIFTYNAMGWYRQAPGKERELVAAITTSGDSTYYADSVKGRFTISRDNAKNTVYLQMNSLKPEDTAVYYCNADWSWYNYYDFDYWGQGTQVTVSS | low polyreactivity |
| QVQLVESVGGLVQAGGSLRLSCAASGSIFVKNAMGWYRQAPGKEREFVAVISTGDSTHYADSVKGRFTISRDNAKNTVYLQMNSLKPEDTAVYYCAARYYSYGSSYGYWGQGTQVTVSS | high polyreactivity |
| QVQLVESVGGLVQAGGSLRLSCAASGSIFVKNAMGWYRQAPGKERELVAVITIRTATTYYADSVKGRFTISRDNAKNTVYLQMNSLKPEDTAVYYCAAAKRQRGYLQREYDYWGQGTQVTVSS | low polyreactivity |
| QVQLVESVGGLVQAGGSLRLSCAASGSIFYWSAMGWYRQAPGKERELVAAISSGGSTNYADSVKGRFTISRDNAKNTVYLQMNSLKPEDTAVYYCAAGWDASYGYDYWGQGTQVTVSS | low polyreactivity |
| QVQLVESVGGLVQAGGSLRLSCAASGSNFYVNAMGWYRQAPGKERELVAAISRRGGSTYYADSVKGRFTISRDNAKNTVSLQMNSLKPEDTAVYYCNKAIRGQAPSGPEYYYWGHGTQVTVSS | high polyreactivity |

| Sequence | polyreactivity (PSR sort gate) |
| --- | --- |
| QVQLVESVGGLVQAGGSLRLSCAASGSTFGIYTMGWYRQAPGKERELVAAISSRGGSTYYADSVKGRFTISRDNAKNTVYLQMNSLKPEDTAVYYCAAVGRSHSRPYTDEYWGQGTQVTVSS | high polyreactivity |
| QVQLVESVGGLVQAGGSLRLSCAASGSTFGYYTMGSYRQAPGKEKELVAAITWSGGSTYYADSVKGRITISRDNAKYTVYLQINSLKPEDTAVYYCADDDYWTPFGYLGQGTQVTVSS | low polyreactivity |
| QVQLVESVGGLVQAGGSLRLSCAASGSTFHRNTMGWDRQAPGKERELVAGISLRGVRTYYADSVKGRFTISRDKAKNTVYLQMNSLKPEDTAVYYCAAGCPYTRNFKLGYWGQGTQVTVSS | high polyreactivity |
| QVQLVESVGGLVQAGGSLRLSCAASGSTFIIYAMGWYRQAPGKERELVATISTRGTSTYYADSVKGRFTISRDNEKNTVYLQMKSLKPEDTAVYYCNARRRGYGNRYTFDYWGQGTQVTVSS | high polyreactivity |
| QVQLVESVGGLVQAGGSLRLSCAASGSTFRPYAMGWSRQAPGKERELVAAITGSGGSTYYADSVKGRFTISRDNAKNTVYLQMNSLKPEDTAVYYCNAVSTWRYYYWGQGTQVTVSS | high polyreactivity |
| QVQLVESVGGLVQAGGSLRLSCAASGSTFRYYAMGWYRQAPGKERELVAAITGSGGSTYYADSVKGRFTISRDNAKNTVYLQMNSLKPEDTAVYYCAAYCSRSILRYDSWGQGTQVTVSS | high polyreactivity |
| QVQLVESVGGLVQAGGSLRLSCAASGSTFTAYAMGWYRQAPGKERELVAAITSGGSKNYADSVKGRFTISRDNAKNTVYLQMNSLKPEDTAVYYCNADDYWLDSWSSFLWYDYWGQGTQVTVSS | low polyreactivity |
| QVQLVESVGGLVQAGGSLRLSCAASGSTFTSNAMGWYRQAPGKEREFVAAISVGGGITYYADSVKGRFTISRDNAKNTVYLQMNSLKPEDTAVYYCAADAWSVILWREMDYWGQGTQVTVSS | low polyreactivity |
| QVQLVESVGGLVQAGGSLRLSCAASGSTFWYNAMGWYRLAPGKERELVAAISQSGGRTYYADSVKGRFTISRDNAKNTVYLQMNSLKPEDTAVYYCNAVSRDKSLYDYWGQGTQVTVSS | high polyreactivity |
| QVQLVESVGGLVQAGGSLRLSCAASGSTIDGYAMGCYIQAPGKEREFVAAISFSSASTYYADSVKGRFTISRDNAKNTVYLQMNSLKPEDTAVYYCNADFFDSGGSIEDDSWGQGTQVTVSS | low polyreactivity |
| QVQLVESVGGLVQAGGSLRLSCAASGYILPKNTMGWYIQAPGKERELVAAISWSGGSTFYADSVKGRFTISRDNAKNTVYLQMNRLKPEDTAVYYCAADRSWSWYYRYDYWGQGTQVTVSS | low polyreactivity |
| QVQLVESVGGLVQAGGSLRLSCAASVYMFYDYDMGWYRQAPGKAREFVARITSDGSTYADSVKGRFTISRDNAKNTVYLQMNMLKPEDTAVYYCNRKSRSYFWSVQDSFKYDYWGQGTQVTVSS | low polyreactivity |
| QVQLVESVGGLVQAGGSLRLSCAGSGFTFYRYTMGWYRQAPGTERELVAAISFSGGITRYADSVKGRFTISRDNAKNTVYLQMNSLKPEDTAVYYCNVVGPSAYLSWHKSGDYWGQGTQVTVSS | low polyreactivity |
| QVQLVESVGGLVQAGGSLRLSCAGSGSIFFRNSMLWYRQAPGKERELVAAIRSSVSSTYYADSVKGRFTISRDNAKNTVYLQLNSLKPEDTAVYYCAAAARSYVGYYYWGQGTQVTVSS | low polyreactivity |
| QVQLVESVGGLVQAGGSLRLSCAGSGSTFGRYTMGSSRQAPVKEREFVAAIRWSGGNTYYADTVKGRFTISRGKAKNTVYLQMNSLKTEDTAVFYCNRVYSTIGDYWGQGTQVTVSS | low polyreactivity |
| QVQLVESVGGLVQAGGSLRLSCASSGRIFRGNAMGWYRQAPGKERELVAAINSRGTHTYYADSVKGRFTISRDNAKNTVYLQMNSLKPEDTAVYYCAATWTQPQPGYYAYYYWGQGTQVSVSS | high polyreactivity |
